Test results published in patent publication US10500249B2, “Compositions and methods for preventing or treating diseases, conditions, or processes characterized by aberrant fibroblast proliferation and extracellular matrix deposition” (MOERAE MATRIX, INC., priority 2014, dated 2019).

Columns and labels:
Assay in all cases: Kinase Profiling Assay
Assay type in all cases: biochemical
Details in all cases: 100 μM
ARK5 (h) = target: T1, ARK5 (h) (Homo sapiens, UniProt O60285)
T1 sequence (O60285 1-661): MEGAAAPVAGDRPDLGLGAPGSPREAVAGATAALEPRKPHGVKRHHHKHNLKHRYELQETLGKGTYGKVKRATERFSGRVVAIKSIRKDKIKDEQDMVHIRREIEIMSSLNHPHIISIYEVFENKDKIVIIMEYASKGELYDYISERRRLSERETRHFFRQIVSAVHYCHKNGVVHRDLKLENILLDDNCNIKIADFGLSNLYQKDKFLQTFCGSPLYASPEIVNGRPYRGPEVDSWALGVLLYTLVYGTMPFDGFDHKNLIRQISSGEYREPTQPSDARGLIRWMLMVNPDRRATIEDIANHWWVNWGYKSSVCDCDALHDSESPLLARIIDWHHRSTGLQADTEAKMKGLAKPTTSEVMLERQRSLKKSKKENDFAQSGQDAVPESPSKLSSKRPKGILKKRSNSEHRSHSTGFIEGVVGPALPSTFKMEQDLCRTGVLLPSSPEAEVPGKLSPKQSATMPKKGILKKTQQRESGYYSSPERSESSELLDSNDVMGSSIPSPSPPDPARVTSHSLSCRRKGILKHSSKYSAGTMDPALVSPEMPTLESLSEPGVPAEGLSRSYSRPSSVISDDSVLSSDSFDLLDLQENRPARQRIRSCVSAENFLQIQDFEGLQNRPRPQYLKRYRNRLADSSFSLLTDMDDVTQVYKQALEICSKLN
Summary of the method: (§1)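 Activity remaining relative to an uninhibited control was determined by scintillation counting of labeled substrate bound to a negatively charged filter. Radiolabeled phosphate came from ATP; the substrate carried positive charge. Duplicate measurements, within a 266-kinase human panel.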

Abl(T315I) (h) = Abl(T315I) (h) (Homo sapiens, UniProt P00519, T315I)
Summary of the method: as §1

Abl(Y253F) (h) = Abl(Y253F) (h) (Homo sapiens, UniProt P00519, Y253F)
Summary of the method: as §1

GCK (h) = target: T2, GCK (h) (Homo sapiens, UniProt Q12851)
T2 construct: purchased Millipore
T2 sequence (Q12851 1-820): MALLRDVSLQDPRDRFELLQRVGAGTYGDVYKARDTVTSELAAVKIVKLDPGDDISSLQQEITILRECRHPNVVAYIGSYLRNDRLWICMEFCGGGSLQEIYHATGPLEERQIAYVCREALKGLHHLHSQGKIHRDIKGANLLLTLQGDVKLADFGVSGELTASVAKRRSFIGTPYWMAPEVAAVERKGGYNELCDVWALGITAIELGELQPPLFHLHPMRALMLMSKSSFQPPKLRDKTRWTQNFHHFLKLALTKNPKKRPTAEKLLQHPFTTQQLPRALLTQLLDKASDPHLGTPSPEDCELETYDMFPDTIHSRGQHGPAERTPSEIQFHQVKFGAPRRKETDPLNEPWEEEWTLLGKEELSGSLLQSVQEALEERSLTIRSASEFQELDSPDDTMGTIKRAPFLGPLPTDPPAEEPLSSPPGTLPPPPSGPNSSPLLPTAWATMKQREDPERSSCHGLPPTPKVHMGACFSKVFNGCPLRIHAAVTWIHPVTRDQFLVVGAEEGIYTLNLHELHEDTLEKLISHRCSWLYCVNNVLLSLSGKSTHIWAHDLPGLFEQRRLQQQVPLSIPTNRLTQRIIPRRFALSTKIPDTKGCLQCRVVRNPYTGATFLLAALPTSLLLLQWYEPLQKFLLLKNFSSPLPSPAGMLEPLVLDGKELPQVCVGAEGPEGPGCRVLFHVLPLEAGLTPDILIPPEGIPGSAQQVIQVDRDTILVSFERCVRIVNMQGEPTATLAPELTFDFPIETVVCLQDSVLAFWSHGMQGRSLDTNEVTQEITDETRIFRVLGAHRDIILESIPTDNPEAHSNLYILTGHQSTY
Summary of the method: as §1

MST2 (h) = target: T3, MST2 (h) (Homo sapiens, UniProt Q13188)
T3 construct: purchased Millipore
T3 sequence (Q13188 1-491): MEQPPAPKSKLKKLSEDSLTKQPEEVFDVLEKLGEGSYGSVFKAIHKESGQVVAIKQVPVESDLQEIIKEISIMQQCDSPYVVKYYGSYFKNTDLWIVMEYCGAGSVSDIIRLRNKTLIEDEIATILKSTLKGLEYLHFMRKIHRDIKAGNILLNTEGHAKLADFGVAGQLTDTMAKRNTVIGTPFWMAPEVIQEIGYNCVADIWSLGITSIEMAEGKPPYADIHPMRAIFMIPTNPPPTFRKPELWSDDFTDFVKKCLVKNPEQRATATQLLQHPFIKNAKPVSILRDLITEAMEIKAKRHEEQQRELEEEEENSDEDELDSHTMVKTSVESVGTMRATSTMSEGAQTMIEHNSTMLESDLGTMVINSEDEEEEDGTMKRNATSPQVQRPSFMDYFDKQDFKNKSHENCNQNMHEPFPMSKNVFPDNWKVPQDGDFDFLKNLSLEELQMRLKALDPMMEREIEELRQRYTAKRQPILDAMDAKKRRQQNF
Summary of the method: as §1

PAK2 (h) = target: T4, PAK2 (h) (Homo sapiens, UniProt Q13177)
T4 construct: purchased Millipore
Summary of the method: as §1

PAK4 (h) = target: T5, PAK4 (h) (Homo sapiens, UniProt O96013)
T5 construct: purchased Millipore
Summary of the method: as §1

PKCα (h) = target: T6, PKCα (h) (Homo sapiens, UniProt P17252)
T6 construct: purchased Millipore
Summary of the method: as §1

SAPK3 (h) = target: T7, SAPK3 (h) (Homo sapiens, UniProt P53778)
T7 sequence (P53778 1-367): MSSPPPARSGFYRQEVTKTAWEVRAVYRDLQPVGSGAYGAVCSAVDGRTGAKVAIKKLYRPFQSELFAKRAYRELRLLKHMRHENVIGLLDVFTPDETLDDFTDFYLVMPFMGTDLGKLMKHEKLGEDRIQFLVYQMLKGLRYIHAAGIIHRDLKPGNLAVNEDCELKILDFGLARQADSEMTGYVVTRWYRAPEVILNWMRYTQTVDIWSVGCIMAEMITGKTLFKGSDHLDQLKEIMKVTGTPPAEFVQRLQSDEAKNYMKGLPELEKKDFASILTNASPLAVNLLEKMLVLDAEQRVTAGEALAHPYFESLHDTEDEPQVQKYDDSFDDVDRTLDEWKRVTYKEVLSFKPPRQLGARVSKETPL
Summary of the method: as §1

T4 sequence (Q13177 whole entry): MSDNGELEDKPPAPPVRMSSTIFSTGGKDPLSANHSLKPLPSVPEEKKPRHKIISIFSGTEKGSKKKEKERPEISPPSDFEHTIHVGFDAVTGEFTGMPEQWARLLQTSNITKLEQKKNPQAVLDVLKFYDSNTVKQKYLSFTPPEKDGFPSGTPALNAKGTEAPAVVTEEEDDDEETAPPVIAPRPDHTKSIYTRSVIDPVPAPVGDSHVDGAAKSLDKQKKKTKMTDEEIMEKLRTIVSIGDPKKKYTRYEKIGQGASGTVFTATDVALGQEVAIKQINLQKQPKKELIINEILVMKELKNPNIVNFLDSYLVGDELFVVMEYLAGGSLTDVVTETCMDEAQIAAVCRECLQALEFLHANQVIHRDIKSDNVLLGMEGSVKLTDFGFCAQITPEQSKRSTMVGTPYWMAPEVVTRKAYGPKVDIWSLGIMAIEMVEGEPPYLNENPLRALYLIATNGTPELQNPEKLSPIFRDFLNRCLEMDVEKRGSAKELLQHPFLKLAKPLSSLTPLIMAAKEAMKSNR
T5 sequence (O96013 whole entry): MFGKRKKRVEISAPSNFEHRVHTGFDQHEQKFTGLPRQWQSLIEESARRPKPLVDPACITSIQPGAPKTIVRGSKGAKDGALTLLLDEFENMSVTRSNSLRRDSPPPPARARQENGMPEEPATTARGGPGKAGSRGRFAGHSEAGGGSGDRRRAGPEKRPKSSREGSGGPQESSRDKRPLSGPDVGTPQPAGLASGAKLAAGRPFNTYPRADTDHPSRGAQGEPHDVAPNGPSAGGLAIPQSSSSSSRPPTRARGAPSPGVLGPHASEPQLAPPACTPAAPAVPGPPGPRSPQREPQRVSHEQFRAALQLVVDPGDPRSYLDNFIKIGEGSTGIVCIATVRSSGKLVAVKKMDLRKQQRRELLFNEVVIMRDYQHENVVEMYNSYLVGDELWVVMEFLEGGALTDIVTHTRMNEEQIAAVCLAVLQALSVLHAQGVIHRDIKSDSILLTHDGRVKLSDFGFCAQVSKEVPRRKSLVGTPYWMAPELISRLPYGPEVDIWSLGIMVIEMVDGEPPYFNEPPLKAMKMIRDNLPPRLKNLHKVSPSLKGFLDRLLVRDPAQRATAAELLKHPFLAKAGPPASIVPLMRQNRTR

Row | Sequence | % activity (ARK5 (h)) [%] | % activity (Abl(T315I) (h)) [%] | % activity (Abl(Y253F) (h)) [%] | % activity (GCK (h)) [%] | % activity (MST2 (h)) [%] | % activity (PAK2 (h)) [%] | % activity (PAK4 (h)) [%] | % activity (PKCα (h)) [%] | % activity (SAPK3 (h)) [%]
1 | FAKLAARLYRKALARQLGVAA [MMI-0300] | 78 | 97 | 86 | 70 | 19 | 65 | 94 | 89 | 84
2 | HRRIKAWLKKIKALARQLGVAA (Mammalian) [MMI-0500] | 20 | 16 | 29 | 30 | 2 | 44 | 86 | 3 | 24
3 | KAFAKLAARLYRKALARQLGVAA [MMI-0400] | 69 | – | 78 | 66 | 11 | 59 | 89 | 86 | 79
4 | YARAAARQARAKALNRQLGVA (Mammalian) [MMI-0200] | 93 | 108 | – | 99 | – | 69 | 98 | 100 | 97
